B1: Thyroid hormone receptor beta (Homo sapiens), P10828-1 (parent)
chain: MTPNSMTENGLTAWDKPKHCPDREHDWKLVGMSEACLHRKSHSERRSTLKNEQSSPHLIQTTWTSSIFHLDHDDVNDQSVSSAQTFQTEEKKCKGYIPSYLDKDELCVVCGDKATGYHYRCITCEGCKGFFRRTIQKNLHPSYSCKYEGKCVIDKVTRNQCQECRFKKCIYVGMATDLVLDDSKRLAKRKLIEENREKRRREELQKSIGHKPEPTDEEWELIKTVTEAHVATNAQGSHWKQKRKFLPEDIGQAPIVNAPEGGKVDLEAFSHFTKIITPAITRVVDFAKKLPMFCELPCEDQIILLKGCCMEIMSLRAAVRYDPESETLTLNGEMAVTRGQLKNGGLGVVSDAIFDLGMSLSSFNLDDTEVALLQAVLLMSSDRPGLACVERIEKYQDSFLLAFEHYINYRKHHVTHFWPKLLMKVTDLRMIGACHASRFLHMKVECPTELFPPLFLEVFED

Variants of: B1
Settings: with ncoa3_human NCOA3, Q9Y6Q9
In the case of P214R, the “effect of a mutation on the interaction” value is reported as “increasing interaction”. For R243W, the “effect of a mutation on the interaction” value was “increasing interaction”. In the case of K288I, the “effect of a mutation on the interaction” value is reported as “disrupting interaction”. For E457Q, the “effect of a mutation on the interaction” value was “decreasing interaction”.

Variants of: B1
Settings: with ncor2_human NCOR2, Q9Y618
In the case of P214R, the “effect of a mutation on the interaction” value is reported as “decreasing interaction”. With R243W the “effect of a mutation on the interaction” value was “increasing interaction”. With A228G;H229G;T232A the “effect of a mutation on the interaction” value was “decreasing interaction”.

Source: IntAct's records for PubMed 20956942
